According to the supplement of paper PMC9170038:

Tested on: MS2 coat protein
Assay: apparent KD of MS2 coat protein; designed switch direction (-1 OFF switch, 1 ON switch): -1; higher = weaker reporter binding
In short: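 On Illumina chips, designed RNA switches with common flanks were made by stalled E. coli RNA polymerase. Titrations with SNAP-549-labelled MS2 coat protein, doubling from 0.7 or 1.5 nM to 3 µM, were done with no input, with 200 uM small-molecule ligand, or with an oligonucleotide input. Apparent KD is the median per design over clusters, from curve fits of normalised cluster fluorescence.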

[1] = Eterna round: R95, input ligand: microRNA oligo, concentration not stated
[2] = input ligand: microRNA oligo, concentration not stated
[3] = Eterna round: R95, input ligand: FMN 200 uM
[4] = Eterna round: R95, input ligand: none

Sequence | apparent KD of MS2 coat protein [1] [nM] | apparent KD of MS2 coat protein (input ligand: FMN 200 uM) [nM] | apparent KD of MS2 coat protein (input ligand: none) [nM] | apparent KD of MS2 coat protein [2] [nM] | apparent KD of MS2 coat protein [3] [nM] | apparent KD of MS2 coat protein [4] [nM]
CUAUUGUGAGGAUAUCAGGUGUGCUAGCGUACUGGUACAUCUGAGAAGGCACAUGAGGAUCACCCAUGUUUCUU [JL-ex4-3.20 Brourd mod] (puzzle: Exclusion 4) | 18.4 |  |  |  |  | 
CCAACCAGAGGAUAUGCGCAUAGAUCAGACUUUGUUUCUUAACAUGAGGAUCACCCAUGUAGAAGGCUGUAACC [Ex2 #76] (Eterna round: R97, puzzle: Exclusion 2) |  | 21.6 | 20 |  |  | 
GUACUGAGGCUUUGCUUUAAUCGUACAUGAGGAUCACCCAUGUAGGAUAUGGUAGGCUUUGCUUACCAGAAGGACAGAGUGAUC [JL EXNG3 1.23] (Eterna round: R96, puzzle: Exclusion NG 3) |  | 148 | 162 | 121 |  | 
AAUGAUUGAUGAGGAUAUUGUGGUGAAACACGACGAGAAGGCAUAUGUCACAUGAGGAUCACCCAUGUGAGCCUUGUGGAUAUA [Ex NG1 #66] (Eterna round: R96, puzzle: Exclusion NG 1) |  | 115 | 57.9 | 45.9 |  | 
AAGCCACAUGAGGAUCACCCAUGUUAGGAUAUACGCAUGCAGACACGCACGGAUGCAAGUAGAAGGAACCAUGC [Design #5] (Eterna round: R97, puzzle: Exclusion 1) |  | 16.8 | 15.9 |  |  | 
AGAGAGUCAGGAUAUGACGAAGAGAACAUGAGGAUCACCCAUGUAGCUUCGUAAUUAUCGUCAGAAGGGACGAACU [JR_Ex5_Sub089] (Eterna round: R97, puzzle: Exclusion 5) |  | 15.7 | 14.2 |  |  | 
AACACGGCAGGAUAUACUUGAGGAUCACCCAAGUUGUUCGCAACAUAAAAUAACUCUUGUAGAAGGGCCAAAAG [Isorbi] (Eterna round: R97, puzzle: Exclusion 3) |  | 220 | 33.6 |  |  | 
CGGGUGAACAGAGGAUAUCGUACAUGAGGAUCACCCAUGUAAUAAAUGAGAAUUUCGAAUGUAAUCGAGAAGGCUGGAAAACCC [Ostracism 93 - Jieux - Exclusion NG 2] (Eterna round: R96, puzzle: Exclusion NG 2) |  | 228 | 128 | 115 |  | 
GCUAGGCAUGUCAGGAUAUGCAGAUCCUUGGAUCUGCAGAAGGGACAUGAGGAUCACCCAUGUGCCAACCUAGC [Mat - Exclusion 4 - JL Mod - D11] (Eterna round: R97, puzzle: Brourd's mod of Exclusion 4) |  | 609 | 47 |  |  | 
GAGAUGUGAGGAUAUCUAGACCGCGGAAGAGCCGCAGUCCGAGAGAAGGCACAUGAGGAUCACCCAUGUGAUGA [Teorgeor] (puzzle: Exclusion 4) | 36 |  |  |  |  | 
CAUACUAAAGUCAGGAUAUGCGGUCGAAUACGGGCGUAGAAGGGACAUGAGGAUCACCCAUGUAGAUAGUAAAG [EX-4 Malc #19] (puzzle: Brourd's mod of Exclusion 4) | 13.6 |  |  |  | 15.3 | 15.7
GUGCGGUGAGGAUAUACGUAGGUGAAAAUCUGUGUGUUCCUACAUGAGGAUCACCCAUGUAGAAGGCAUGUCAC [LRO-Excl2-14] (puzzle: Exclusion 2) | 47.6 |  |  |  |  | 
UGGGAACGAGGAUAUCGAUGGUGGAACAUGAGGAUCACCCAUGUAUGAGAUAGUGUAGGGCGAGAAGGCGUUAAGU [JR_E5_Sub052] (puzzle: Exclusion 5) | 76.7 |  |  |  |  | 
GCCAGAGGAGGAUAUCUAAUAUAUCACAUGAGGAUCACCCAUGUCCAGCGAAAGCUGGAGGGAGAAGGCCUCUGGC [Fiskers Ex 5 - 23] (Eterna round: R96, puzzle: Exclusion 5) |  | 74.8 | 252 | 172 |  | 
GUUUCACAUGAGGAUCACCCAUGUGAGGAUAUCCAUUUGUUAACCGUAGUUAAUAGAUGGAGAAGGCGCGUGAU [JRxlusion 6 - Jieux - Exclusion 1] (Eterna round: R97, puzzle: Exclusion 1) |  | 66.6 | 62.9 |  |  | 
AUAAAUCAUGUAGGAUAUGCGUGGCGAAGCUAUGCAGAAGGACAUGAGGAUCACCCAUGUGCUUGCGUCUGCGUACAGAUGCUA [Mat - Exclusion NG 1 - Mod of JL - D5] (Eterna round: R96, puzzle: Exclusion NG 1) |  | 330 | 51.7 | 37.7 |  | 
AGUACUAACACGAGAGUGUUAGUACUAUAAGCUUGUGAAACAUGAGGAUCACCCAUGUCCUCAUAAGCUCGUCUUAU [Mat - Sensor v3 - Turn-off var 2 - D103] (Eterna round: R96, puzzle: Sensor v3, turn-off variant 2) |  | 13.8 | 16.8 | 452 |  | 

Sequence | apparent KD of MS2 coat protein [1] [nM] | apparent KD of MS2 coat protein (input ligand: FMN 200 uM) [nM] | apparent KD of MS2 coat protein (input ligand: none) [nM] | apparent KD of MS2 coat protein [2] [nM] | apparent KD of MS2 coat protein [3] [nM] | apparent KD of MS2 coat protein [4] [nM]
UGAGAACAUGAGGAUCACCCAUGUAAGGAUAUGCGAAGAGUUUGGAGAGGUUGAGGAGGCAGAAGGUACGGGAG [JR_Exclu1_Sub045] (puzzle: Exclusion 1) | 49.9 |  |  |  | 50.2 | 74.3
CUUAGCCUAAAAUCACGCAAGCCUUUUGCUUGUCUUAAGACAUGAGGAUCACCCAUGUCCGGGCUGAACUUAUGGAA [Geanon] (puzzle: Sensor v3, turn-off variant 2) | 33.3 |  |  |  | 17.4 | 16.6
UUUAAGUCAGGAUAUCGUUAAUUUAAUAAAUAAAUUUAAUUCGAGAAGGGACAUGAGGAUCACCCAUGUAAUUU [Ex4 #1] (Eterna round: R97, puzzle: Exclusion 4) |  | 45.5 | 34.8 |  |  | 
AAACGGCGGAUCGUGGCUUUUUGCUCGUCUUGUGCUUCAACAUGAGGAUCACCCAUGUAGUGGUGAUCCGUUGUAAA [Grok-var2-17 mod JAL] (puzzle: Sensor v3, turn-off variant 2) | 26.7 |  |  |  | 25.8 | 42.1
CCGGAAGUAGAGGAUAUAGGAGUCGAUAGACUCCUAGAAGGCUAUACAUGAGGAUCACCCAUGUGUCCUACCGG [Fiskers Ex 6 - 68] (puzzle: Exclusion 6) | 19.1 |  |  |  |  | 
GUUAACGUAGGAUAUUAGUACAUGCACAUGAGGAUCACCCAUGUUUAGUGGGUCUAGGAAUAAGAAGGGCGAUGAA [EX5 #22] (Eterna round: R97, puzzle: Exclusion 5) |  | 472 | 567 |  |  | 
UUAUGGCGAGAGGAUAUUCUGCUACGGCCCGGAGAAGAAGGUUUGACAUGAGGAUCACCCAUGUGGUCGCUCCU [Eternabot (L2) Solution 29] (Eterna round: R97, puzzle: Exclusion 6) |  | 138 | 238 |  |  | 
UGUUGUUGUUUCCGUUCUUACAUGAGGAUCACCCAUGUUUCUUGUCGUGCUCGCGUUGCUCGUCAGACUACCUGUUG [salish99_TOv1_r3_065] (puzzle: Sensor v3, turn-off variant 1) |  |  |  |  | 93.4 | 151
AAGAGGUCAGGAUAUACGGGAAGAGGGAGAAGUAGAGGGUAACAUGAGGAUCACCCAUGUAGAAGGGACUAAGA [JR_Exclu2_Sub073] (puzzle: Exclusion 2) | 26.4 |  |  |  | 26.7 | 28.1
UUUAAGGCUGAGGAUAUGUGGUCCGCCAAAGACAUAGAAGGUAGCACAUGAGGAUCACCCAUGUCACGAAAAGU [Eternabot (L1) Solution 81] (Eterna round: R97, puzzle: Exclusion 6) |  | 54.3 | 52.7 |  |  | 
UCACGGGAUUGAGGAUAUAUUUAAAUUUUUACAAUAGAAGGCAAAUUUUUAGUUUUUUCACUUUACAUGAGGAUCACCCAUGUU [JR_ExcBG1_Sub082] (Eterna round: R96, puzzle: Exclusion NG 1) |  |  |  | 19.6 |  | 
GAAAAGGUAGGAUAUACGAAAAAAAAGGGUAGAAAAAAGACACAUGAGGAUCACCCAUGUAGAAGGACCAAAAG [salish99_ex2_r3_019] (puzzle: Exclusion 2) | 21.7 |  |  |  | 62.5 | 30.3
CAUGAUCUUCGGAUCAUGUACAUGAGGAUCACCCAUGUUACGAGUUGAUCCUCAUACAAGCUUUUUGCUCGUCUUAU [Sensor v3 - Turn-off variant 1 - 26] (puzzle: Sensor v3, turn-off variant 1) | 14.8 |  |  |  | 22.2 | 20.8
GAGACAUGAGGAUCACCCAUGUGUGGUCCAAGGCAUGUCGUCGAGGAUAUGCAGGACGUCGUCUUGCAGAAGGCGACUAAAUAC [Teatarti] (Eterna round: R96, puzzle: Exclusion NG 3) |  | 17.8 | 105 | 19.5 |  | 
UUCUUAUAUGAAGGAUAUACUUAACAUGAGGAUCACCCAUGUGGUGUUGUGAGUGAGUGAGUUUAGUAGAAGGUCAAUUCUUUU [JMF's solution 95] (Eterna round: R96, puzzle: Exclusion NG 2) |  | 818 | 355 | 326 |  | 
GCACGAUAUCAGGAUAUGACUAGCUUCGGCUAGUCAGAAGGGAUGACAUGAGGAUCACCCAUGUGAUCACGUGC [E6/1-B1] (Eterna round: R97, puzzle: Exclusion 6) |  | 79.6 | 60.5 |  |  | 
GGUUGGCGAGGAUAUACAUGAGGAUCACCCAUGUGAGAGAAUAAGUGAGGAAAGAAAAGUAGAAGGCGCUGACG [Mat - Exclusion 3 - Mod of Salish D52] (puzzle: Exclusion 3) | 44.5 |  |  |  | 117 | 55.1
